Results as given in the Human Domainome abundance scans (Beltran et al. 2025).

B1: Cytoplasmic polyadenylation element-binding protein 2, residues 513 to 575; numbered along this chain, Q7Z5Q1 (parent)
chain: KRVEVKPYVLDDQMCDECQGARCGGKFAPFFCANVTCLQYYCEFCWANIHSRAGREFHKPLVK

Variants of: B1
Experiment: abundance fitness (aPCA) (normalised: wild type 0, dead -1); higher = more abundant; growth selection in yeast, the domain comes from the species named
Conditions: Homo sapiens

Abundance fitness, by site and new letter:
Q39: E -0.13, D -0.631, I -0.573, C -0.046, M 0.078, T -0.002, K 0.201, H 0.089, R 0.129, Y -0.369, F -0.472, V -0.001, P -0.799, G 0.024, L -0.175, A 0.1, S 0.016, N -0.103
P29: C -0.147, K -0.065, Q 0.074, W -0.293, G -0.03, N -0.01, S 0.009, V -0.199, F -0.31, I -0.282, D -0.096, E -0.108, R -0.052, Y -0.122, A 0.009
G25: P -0.321, W -0.075, C -0.349, Q -0.066, H -0.19, S -0.138, D -0.082, N -0.025, L -0.207, E -0.195, T -0.088, F -0.118, M -0.127, K 0.016, I -0.538, A -0.147, V -0.323, R -0.081
K26: G -0.082, W -0.509, T -0.073, R -0.027, C -0.261, V -0.06, I -0.236, Q -0.132, S -0.079, Y -0.404, L -0.138, M -0.1, A -0.016, E -0.091, D -0.148, H -0.126
Y40: R -0.132, T -0.315, S -0.178, C -0.411, A -0.149, K -0.186, F -0.087, L -0.397, Q -0.184, N 0.041, M -0.231, W -0.059, H -0.092, E -0.702, G -0.474, I -0.512, P -0.654, V -0.399
V35: A 0.039, D -0.091, Y -0.305, P 0.116, I -0.088, G 0.058, T 0.033, E 0.063, M -0.334, W -0.29, R 0.077, N 0.108, Q 0.021, C -0.253, K 0.002, H -0.037, F -0.115
G24: T -0.325, M -0.275, P -0.21, S -0.046, L -0.089, A -0.052, N 0.172, E 0.018, W -0.278, H -0.252, K -0.068, V -0.083, I -0.418, Q 0.066, R -0.135, C -0.242, Y -0.088
C42: E -0.951, G -0.58, A -0.593, D -0.558, F -0.819
A33: R -0.124, P -0.072, Q 0.099, E 0.077, L -0.311, S 0.061, W -0.28, G -0.047, Y 0.009, D 0.12, K -0.147, T 0.021, N 0.002, F -0.336, V -0.124, H -0.177, M -0.18
L38: A 0.044, R 0.056, I -0.115, P -0.706, S 0.009, D -0.054, F -0.076, T -0.072, Y 0.174, K 0.202, V -0.094, E 0.077, N 0.219, H 0.029, C 0.064, G -0.006, W 0.022, M 0.123
C32: T -0.779, W -0.929, R -0.739, G -0.802, P -0.737, I -0.47, F -1.1, H -0.917, K -0.617, Q -0.742, N -0.724, Y -0.837, S -0.664, M -0.793, E -0.683, L -0.882
F31: G -0.685, Q -0.425, K -0.332, C -0.547, A -0.644, E -0.291, R -0.324, P -0.588, M -0.461, W -0.04, H -0.626, T -0.57, Y 0.033, V -0.622, S -0.591, N -0.608, L -0.328, D -0.962
A28: Y -0.985, F -0.498, D -0.484, S -0.321, E -0.289, N -0.459, H -0.495, T -0.364, G -0.314, L -0.497, C -0.674, Q -0.366, P -0.208, V -0.287, W -0.381, R -0.233, M -0.445, K -0.094, I -0.337
F27: R -0.014, P -0.01, C 0.054, G -0.061, A 0.068, H -0.08, W -0.178, E -0.09, N -0.099, V -0.035, S -0.022, M -0.013, K 0.084, Q -0.045, I -0.218, Y -0.202, T -0.053, L -0.015, D -0.125
F30: R -0.09, T -0.188, V -0.219, P -0.621, D -0.318, S -0.195, A -0.261, E -0.415, L -0.036, I -0.161, N -0.081, Q 0.016, C -0.322, G -0.582, Y 0.006, K 0.037
N34: D -0.07, W -0.2, E 0.043, S -0.095, P -0.878, I -0.731, Y -0.103, C -0.354, R -0.207, G -0.106, T -0.175, A -0.028, Q -0.207, L -1.24, V -0.29, F -0.363, H -0.438, M -0.44
T36: V -0.106, Q -0.058, E 0.108, S -0.011, P -0.054, R -0.151, H -0.061, Y -0.153, I -0.09, W -0.328, G 0.073, F -0.312, C -0.201, D 0.108, N -0.024, A 0.007, M -0.095, K -0.027, L -0.121
C37: Q -1.02, F -0.85, V -0.88, I -0.568, L -0.931, S -0.54, D -0.766, W -0.952, R -0.55, E -0.76, T -1, G -0.633, H -0.352, Y -0.806, A -0.82, P -0.496
C23: P -0.229, Q -0.24, M -0.188, N -0.121, S -0.074, V -0.328, E -0.153, K -0.194, W -0.424, L -0.285, D 0.028, Y -0.38, T -0.095, F -0.409, G -0.056, R -0.185
Y41: R -0.804, A -0.676, T -0.329, Q -0.433, G -0.878, F -0.088, V -0.531, S -0.532, I -0.694, C -0.365, L 0.039, M -0.053, E -0.652, H -0.704, K -0.625, D -0.729, N -0.898, P -0.734
